Measured values reported in patent publication US20250051443A1 (NATIONAL RESEARCH COUNCIL OF CANADA, published 2025).

What was measured:
human CD3 [1] = target: T1, human CD3 (human, UniProt P07766 23-207; P09693 23-182; P04234 22-171); assay: flow competition on Jurkat, 100 nM unlabeled mAb; competitor AF488-OKT-3 mIgG2b 1.5 nM
T1 construct: whole, on cells; also called CD3 on Jurkat T cells; CD3 on primary human T cells
Method: (§1) In order to evaluate whether anti-CD3 monoclonal antibodies bind to the same epitope region, flow cytometry competition experiments on Jurkat cells were performed.
(§2) To that effect, a fixed concentration of the indicated AF488-labeled mAb were incubated with 100 nM of unlabeled monoclonal antibodies to assess if their binding capacity was impaired in presence of unlabeled mAbs. […] The AF488-OKT3 mIgG2b was labeled in-house using AlexaFluor488 protein labelling kit (Invitrogen #A10235) following manufacturer's instruction. The free dye removal step was done using Zeba™ Spin Desalting Columns, 7K MWCO (Thermo Scientific #89890). The final product was analyzed by UPLC-SEC to ensure the integrity of the labeled mAb.

human CD3 [2] = target: T1, human CD3; assay: apparent KD (KDapp), flow cytometry titration on Jurkat cells
Method: Unless otherwise stated, all media are kept are 4° C. and all incubations are performed on wet ice. Exponentially growing Jurkat cells were centrifuged and resuspended in complete medium at a cell density of 2×10⁶ cells/mL. Fifty μL/well of cells were distributed in a polypropylene v-bottom 96 well plate and serial 1/3 dilutions of purified mAbs starting at 300 nM were added and incubated for 2 hours. Cells were washed twice by centrifugation and further incubated with a FITC labeled F(ab′)2 goat anti-mouse antibody (Fc specific, #115-096-071, Jackson Immunoresearch, Cedarlane, Burlington, ON) for an hour. Cells were washed and re-suspended in medium containing Propidium iodide to exclude dead cells from analysis. Samples were filtered through a 60 μm nylon mesh filter plate (Millipore, Ireland) to remove cell aggregates. Flow cytometry analyses were performed on 2,000 viable single-cells events gated on forward scattering, side scattering parameters and propidium iodide dye exclusion using a BD-LSRFortessa flow cytometer (Becton-Dickinson Biosciences, CA, USA) and a standard filter set using BD FACSDiva™ acquisition software, according to manufacturer's instructions.

human CD3 [3] = target: T1, human CD3; assay: flow competition on Jurkat, 100 nM unlabeled mAb; competitor AF488-SP34.2 20 nM
Method: as §1, §2

human CD3 [4] = target: T1, human CD3; assay: flow competition on Jurkat, 100 nM unlabeled mAb; competitor AF488-SK7 1.5 nM
Method: as §1, §2

human CD3 [5] = target: T1, human CD3; assay: apparent KD (KDapp), flow cytometry titration on purified primary human T cells
Method: The binding characteristics of the purified anti-CD3 mAbs were assessed in titration studies on purified human primary T cells from different donor samples. Fresh ex vivo peripheral blood mononuclear cells (PBMCs) were obtained via density centrifugation over Ficoll-Paque using standard procedures and untouched T cell fractions obtained from PBMCs by negative pan-T cell selection and magnetic cell sorting. Starting from 300 nM concentrations of the anti-CD3 mAbs, eight point binding curves were generated from the resultant mean fluorescence intensity (MFI) values obtained through detection of labelled secondary antibody to bound CD3 in flow cytometry experiments (FIGS. 3A and 3B). Both commercial mouse anti-human CD3 mAb (OKT-3; Biolegend) and an in house generated IgG1 version of OKT-3 were employed as positive controls together with a non-specific mouse IgG serving as a negative binding control. Following curve fit analysis using one-site specific binding with Hill slope, the KDapp (concentration needed to achieve a half-maximum binding at equilibrium) for each mAb was calculated (Table 2).
Eight point binding titrations were performed with the anti-CD3 mAbs starting at either 300 or 100 nM on freshly purified human T cells obtained through negative selection from PBMC fractions. Briefly, 1×10⁵ human T cells (50 μL of staining buffer (SB; PBS/1% BSA/0.01% NaN3) were incubated with graded dilutions of the anti-CD3 mAbs in SB ([…]) for 2 hours at 4° C. in 96 w U-bottom plates, followed by plate washing with SB ([…]). Cell pellets were resuspended with 25 μL of a 0.25 mg/mL solution of the goat (Fab′)₂ anti-mouse IgG (H+L)− APC secondary antibody in SB, incubated at 4° C. (30 min.), washed 1× with SB, and resuspended for flow analysis. Recombinant anti-human OKT-3 IgG2b (in house produced) and non-specific mIgG were employed similarly as positive and negative controls respectively. 10K live events were acquired on a BD LSRFortessa flow analyzer and mean fluorescence intensities (MFI) calculated after subtraction of secondary antibody alone values. Using GraphPad Prism software, the data were analyzed using a one site specific binding with Hill slope non-linear regression model to calculate KDapp and BMax values (See Table 2).

human CD3 [6] = target: T1, human CD3; assay: cell-based or functional assay
human CD3 [7] = target: T1, human CD3; assay: cell-based or functional assay; remark: listed apart in the source
human CD3 [8] = target: T1, human CD3; assay: flow competition on Jurkat, 100 nM unlabeled mAb; competitor AF488-UCHT1 5 nM
Method: as §1, §2

human CD3 [9] = target: T1, human CD3; assay: flow cytometry, hybridoma supernatant on CD3+ Jurkat cells
Method: Cells were stained with either negative control mouse IgG (Jackson Immunoresearch cat #115-000-003) or an anti-GFP 3E6 mAb supernatant or tested hybridoma supernatant. Specific binding was reflected by the increase in the mean fluorescent intensity of antibody binding to Jurkat T-cells (FIGS. 1A to 1F, grey histograms) compared to the Jurkat CD3 negative cell line J.RT3-T3.5 (FIGS. 1A to 1F, open histograms). AF488 labeled positive control mAb OKT3 was also analyzed.

B1: F282-2D5 (antibody, V domains shown)
VH: QVQLQQPGTELVKPGASVKLSCKASGYTFTSYWMHWVKQRPGQGLEWIGNINPSNGGTNYNENFKTKATLTVDKSSSTAYMQLSSLTSEDSAVYYCARDRSGQYYFDYWGQGTTLTVSS
VL: DIVMSQSPSSLAVSAGEKVTMSCKSSQSLLNSRTRKNYLAWYQQKPGQSPKLLIYWASTRESGVPDRFTGSGSGTDFTLTISSVQAEDLAVYYCIQSYHLRTFGGGTILEIK
notes: also called F282-2D5-2
% residual fluorescence of labeled mAb (human CD3 [1]): 78% | Kd (human CD3 [2]): 0.3 nM | % residual fluorescence of labeled mAb (human CD3 [3]): 7% | % residual fluorescence of labeled mAb (human CD3 [4]): 42% | Kd (human CD3 [5]): 0.47 nM | IC50, indirect ADC surrogate growth inhibition (anti-mouse-DM1) on Jurkat cells (human CD3 [6]): 0.075 nM | Span, indirect ADC surrogate growth inhibition on Jurkat cells (human CD3 [6]): 97% | % max ref. OKT3 (dTomato activation) (human CD3 [7]): 98% | EC50 of dTomato induction (CD69 promoter), Jurkat-CD69-dTomato cells, 24 h (human CD3 [7]): 0.13 µg/mL | % residual fluorescence of labeled mAb (human CD3 [8]): 64% | MFI (human CD3 [9]): 349 MFI

B2: F332-1C9 (antibody, mouse IgG2a, V domains shown)
VH: QVQLQQPGAELGKPGTSVNLSCKASGYTFTSYWMHWVKQRPGQGLDWIGNINPNSGTTNYNEKFKSKATLTVDKSSSTAYMQLSTLTSEDSAVYYCTRDISGQYYFDYWGQGTSLTVSS
VL: DIVMSQSPSSLAVSAGEKVTMSCKSSQSLLNSRTRKNYLAWYQQKPGQSPKLLIYWASTRESGVPDRFTGSGSGTDFTLIISSVQAEDLAVYYCKQSYSLRTFGGGTKLEIK
notes: Sister clones 1A10, 5H8, 8B11 share the same entries; also called F332-1C9-2; F332-1C9 (1A10, 5H8, 8B11)
% residual fluorescence of labeled mAb (human CD3 [1]): 89% | Kd (human CD3 [2]): 0.5 nM | % residual fluorescence of labeled mAb (human CD3 [3]): 12% | % residual fluorescence of labeled mAb (human CD3 [4]): 45% | Kd (human CD3 [5]): 0.94 nM | IC50, indirect ADC surrogate growth inhibition (anti-mouse-DM1) on Jurkat cells (human CD3 [6]): 0.072 nM | Span, indirect ADC surrogate growth inhibition on Jurkat cells (human CD3 [6]): 94% | % max ref. OKT3 (dTomato activation) (human CD3 [7]): 94% | EC50 of dTomato induction (CD69 promoter), Jurkat-CD69-dTomato cells, 24 h (human CD3 [7]): 0.2 µg/mL | % residual fluorescence of labeled mAb (human CD3 [8]): 76% | MFI (human CD3 [9]): 277 MFI

B3: F332-1E2 (antibody, mouse IgG2a, V domains shown)
VH: QVQLQQPGAELGKPGTSVKLSCKASGYTFTSYWIHWVKQRPGQGLEWVGNINPNSGSINYNEKFKNKATLTVDKSSSTAYMQLSTLTSEDFAVYYCTRDTSGQYYFDYWGQGTTLTVSS
VL: DIVMSQSPSSLAVSAGERVTMSCKSSQSLLNSRTRKNYLAWYQQKPGQSPKLLIYWASTRESGVPDRFTGSGSGTDFTLTISSVQAEDLAVYYCIQSYHLRTFGGGTKLEIK
notes: Sister clone 8C5 shares the same entries; also called F332-1E2-2; F332-1E2 (8C5)
% residual fluorescence of labeled mAb (human CD3 [1]): 77% | Kd (human CD3 [2]): 0.3 nM | % residual fluorescence of labeled mAb (human CD3 [3]): 6% | % residual fluorescence of labeled mAb (human CD3 [4]): 42% | Kd (human CD3 [5]): 0.4 nM | IC50, indirect ADC surrogate growth inhibition (anti-mouse-DM1) on Jurkat cells (human CD3 [6]): 0.031 nM | Span, indirect ADC surrogate growth inhibition on Jurkat cells (human CD3 [6]): 95% | % max ref. OKT3 (dTomato activation) (human CD3 [7]): 104% | EC50 of dTomato induction (CD69 promoter), Jurkat-CD69-dTomato cells, 24 h (human CD3 [7]): 0.16 µg/mL | % residual fluorescence of labeled mAb (human CD3 [8]): 69% | MFI (human CD3 [9]): 319 MFI

B4: F332-3E9 (antibody, mouse IgG2a, V domains shown)
VH: QVQLQQPGAELGKPGTSVKLSCKASGYTFTSYWIHWLKQRPGQGLEWIGNINPNGGSINCNEKFTTKATLTIDKSSSTAYMQLSTLTSEDFAVYYCTRDTSGQYYFDYWGQGTTLTVSS
VL: DIMMSQSPSSLAVSAGEKVTMSCKSSQSLLNSRTRKNYLAWYQQKPGQSPKLLIYWASTRESGVPDRFTGSGSGTDFTLTISSVQAEDLAVYYCTQSYHLRTFGGGTKLEIK
notes: also called F332-3E9-2; F332-3E9 (12G4)
% residual fluorescence of labeled mAb (human CD3 [1]): 79% | Kd (human CD3 [2]): 0.5 nM | % residual fluorescence of labeled mAb (human CD3 [3]): 11% | % residual fluorescence of labeled mAb (human CD3 [4]): 45% | Kd (human CD3 [5]): 1 nM | IC50, indirect ADC surrogate growth inhibition (anti-mouse-DM1) on Jurkat cells (human CD3 [6]): 0.05 nM | Span, indirect ADC surrogate growth inhibition on Jurkat cells (human CD3 [6]): 94% | % max ref. OKT3 (dTomato activation) (human CD3 [7]): 84% | EC50 of dTomato induction (CD69 promoter), Jurkat-CD69-dTomato cells, 24 h (human CD3 [7]): 0.11 µg/mL | % residual fluorescence of labeled mAb (human CD3 [8]): 76% | MFI (human CD3 [9]): 297 MFI
